Literature values, collected in article PMC8667759.

How the values were obtained:
Piezo1 = Piezo1 (UniProt E2JF22)
Cav3 = Cav3 (UniProt O43497)
Sequence of UniProt O43497 (O43497 whole entry): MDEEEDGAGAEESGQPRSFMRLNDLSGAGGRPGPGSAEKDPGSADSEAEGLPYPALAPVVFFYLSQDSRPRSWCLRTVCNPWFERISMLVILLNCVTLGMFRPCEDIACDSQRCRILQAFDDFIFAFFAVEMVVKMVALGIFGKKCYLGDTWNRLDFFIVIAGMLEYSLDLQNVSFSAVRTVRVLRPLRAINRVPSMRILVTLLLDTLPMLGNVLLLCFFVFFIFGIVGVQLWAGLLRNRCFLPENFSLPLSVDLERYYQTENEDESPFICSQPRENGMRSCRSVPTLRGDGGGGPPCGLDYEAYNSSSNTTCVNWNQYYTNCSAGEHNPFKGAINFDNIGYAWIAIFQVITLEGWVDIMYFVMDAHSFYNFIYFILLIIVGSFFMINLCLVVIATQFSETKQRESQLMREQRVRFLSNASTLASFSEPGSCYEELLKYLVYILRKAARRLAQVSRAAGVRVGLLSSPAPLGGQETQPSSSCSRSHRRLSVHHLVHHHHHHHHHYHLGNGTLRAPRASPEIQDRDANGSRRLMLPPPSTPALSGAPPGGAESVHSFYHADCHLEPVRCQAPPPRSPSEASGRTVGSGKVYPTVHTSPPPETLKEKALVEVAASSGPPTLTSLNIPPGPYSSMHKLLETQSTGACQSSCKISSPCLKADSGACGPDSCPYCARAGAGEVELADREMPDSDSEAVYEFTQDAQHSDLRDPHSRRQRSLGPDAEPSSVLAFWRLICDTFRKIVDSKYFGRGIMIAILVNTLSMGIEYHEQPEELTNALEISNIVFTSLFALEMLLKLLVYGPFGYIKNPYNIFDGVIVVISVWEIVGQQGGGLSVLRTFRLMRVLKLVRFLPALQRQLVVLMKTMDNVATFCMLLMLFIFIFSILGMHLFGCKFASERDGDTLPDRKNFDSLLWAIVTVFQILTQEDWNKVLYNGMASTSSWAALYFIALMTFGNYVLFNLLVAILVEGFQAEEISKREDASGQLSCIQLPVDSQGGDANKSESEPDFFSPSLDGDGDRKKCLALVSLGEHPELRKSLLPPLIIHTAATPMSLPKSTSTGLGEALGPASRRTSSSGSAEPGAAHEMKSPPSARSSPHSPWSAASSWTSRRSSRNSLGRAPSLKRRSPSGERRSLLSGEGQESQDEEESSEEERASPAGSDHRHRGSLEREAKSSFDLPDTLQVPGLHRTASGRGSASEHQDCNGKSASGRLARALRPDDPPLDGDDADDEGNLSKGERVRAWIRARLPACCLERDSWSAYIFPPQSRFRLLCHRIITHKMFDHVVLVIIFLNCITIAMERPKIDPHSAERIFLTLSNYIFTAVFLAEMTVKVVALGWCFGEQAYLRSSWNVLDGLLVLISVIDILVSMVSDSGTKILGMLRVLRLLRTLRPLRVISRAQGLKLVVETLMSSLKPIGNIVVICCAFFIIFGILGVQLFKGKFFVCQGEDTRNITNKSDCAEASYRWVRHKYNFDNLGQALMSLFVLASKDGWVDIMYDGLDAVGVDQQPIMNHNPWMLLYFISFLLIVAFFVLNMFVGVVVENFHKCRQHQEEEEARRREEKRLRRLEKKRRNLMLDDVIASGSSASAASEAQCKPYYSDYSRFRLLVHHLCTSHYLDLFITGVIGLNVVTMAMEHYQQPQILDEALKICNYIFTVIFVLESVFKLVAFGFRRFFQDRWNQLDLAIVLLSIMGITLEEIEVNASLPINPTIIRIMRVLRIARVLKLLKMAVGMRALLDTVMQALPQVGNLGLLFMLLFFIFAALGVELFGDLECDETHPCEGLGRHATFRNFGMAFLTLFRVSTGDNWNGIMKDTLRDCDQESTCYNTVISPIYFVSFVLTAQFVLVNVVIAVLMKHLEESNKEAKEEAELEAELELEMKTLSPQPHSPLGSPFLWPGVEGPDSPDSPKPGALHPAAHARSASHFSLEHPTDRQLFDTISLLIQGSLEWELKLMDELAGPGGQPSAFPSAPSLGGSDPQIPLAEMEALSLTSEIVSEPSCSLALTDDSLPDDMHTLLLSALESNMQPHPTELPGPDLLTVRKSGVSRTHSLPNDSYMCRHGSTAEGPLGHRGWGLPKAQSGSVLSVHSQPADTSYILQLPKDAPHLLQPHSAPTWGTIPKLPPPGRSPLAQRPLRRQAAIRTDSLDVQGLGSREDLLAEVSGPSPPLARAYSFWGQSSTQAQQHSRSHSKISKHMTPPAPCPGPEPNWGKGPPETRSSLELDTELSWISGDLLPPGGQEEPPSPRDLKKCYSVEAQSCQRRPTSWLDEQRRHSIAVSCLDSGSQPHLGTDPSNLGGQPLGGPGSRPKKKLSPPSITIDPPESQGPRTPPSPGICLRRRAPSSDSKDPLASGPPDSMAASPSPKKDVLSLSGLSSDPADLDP

Sequence of UniProt E2JF22 (E2JF22 whole entry): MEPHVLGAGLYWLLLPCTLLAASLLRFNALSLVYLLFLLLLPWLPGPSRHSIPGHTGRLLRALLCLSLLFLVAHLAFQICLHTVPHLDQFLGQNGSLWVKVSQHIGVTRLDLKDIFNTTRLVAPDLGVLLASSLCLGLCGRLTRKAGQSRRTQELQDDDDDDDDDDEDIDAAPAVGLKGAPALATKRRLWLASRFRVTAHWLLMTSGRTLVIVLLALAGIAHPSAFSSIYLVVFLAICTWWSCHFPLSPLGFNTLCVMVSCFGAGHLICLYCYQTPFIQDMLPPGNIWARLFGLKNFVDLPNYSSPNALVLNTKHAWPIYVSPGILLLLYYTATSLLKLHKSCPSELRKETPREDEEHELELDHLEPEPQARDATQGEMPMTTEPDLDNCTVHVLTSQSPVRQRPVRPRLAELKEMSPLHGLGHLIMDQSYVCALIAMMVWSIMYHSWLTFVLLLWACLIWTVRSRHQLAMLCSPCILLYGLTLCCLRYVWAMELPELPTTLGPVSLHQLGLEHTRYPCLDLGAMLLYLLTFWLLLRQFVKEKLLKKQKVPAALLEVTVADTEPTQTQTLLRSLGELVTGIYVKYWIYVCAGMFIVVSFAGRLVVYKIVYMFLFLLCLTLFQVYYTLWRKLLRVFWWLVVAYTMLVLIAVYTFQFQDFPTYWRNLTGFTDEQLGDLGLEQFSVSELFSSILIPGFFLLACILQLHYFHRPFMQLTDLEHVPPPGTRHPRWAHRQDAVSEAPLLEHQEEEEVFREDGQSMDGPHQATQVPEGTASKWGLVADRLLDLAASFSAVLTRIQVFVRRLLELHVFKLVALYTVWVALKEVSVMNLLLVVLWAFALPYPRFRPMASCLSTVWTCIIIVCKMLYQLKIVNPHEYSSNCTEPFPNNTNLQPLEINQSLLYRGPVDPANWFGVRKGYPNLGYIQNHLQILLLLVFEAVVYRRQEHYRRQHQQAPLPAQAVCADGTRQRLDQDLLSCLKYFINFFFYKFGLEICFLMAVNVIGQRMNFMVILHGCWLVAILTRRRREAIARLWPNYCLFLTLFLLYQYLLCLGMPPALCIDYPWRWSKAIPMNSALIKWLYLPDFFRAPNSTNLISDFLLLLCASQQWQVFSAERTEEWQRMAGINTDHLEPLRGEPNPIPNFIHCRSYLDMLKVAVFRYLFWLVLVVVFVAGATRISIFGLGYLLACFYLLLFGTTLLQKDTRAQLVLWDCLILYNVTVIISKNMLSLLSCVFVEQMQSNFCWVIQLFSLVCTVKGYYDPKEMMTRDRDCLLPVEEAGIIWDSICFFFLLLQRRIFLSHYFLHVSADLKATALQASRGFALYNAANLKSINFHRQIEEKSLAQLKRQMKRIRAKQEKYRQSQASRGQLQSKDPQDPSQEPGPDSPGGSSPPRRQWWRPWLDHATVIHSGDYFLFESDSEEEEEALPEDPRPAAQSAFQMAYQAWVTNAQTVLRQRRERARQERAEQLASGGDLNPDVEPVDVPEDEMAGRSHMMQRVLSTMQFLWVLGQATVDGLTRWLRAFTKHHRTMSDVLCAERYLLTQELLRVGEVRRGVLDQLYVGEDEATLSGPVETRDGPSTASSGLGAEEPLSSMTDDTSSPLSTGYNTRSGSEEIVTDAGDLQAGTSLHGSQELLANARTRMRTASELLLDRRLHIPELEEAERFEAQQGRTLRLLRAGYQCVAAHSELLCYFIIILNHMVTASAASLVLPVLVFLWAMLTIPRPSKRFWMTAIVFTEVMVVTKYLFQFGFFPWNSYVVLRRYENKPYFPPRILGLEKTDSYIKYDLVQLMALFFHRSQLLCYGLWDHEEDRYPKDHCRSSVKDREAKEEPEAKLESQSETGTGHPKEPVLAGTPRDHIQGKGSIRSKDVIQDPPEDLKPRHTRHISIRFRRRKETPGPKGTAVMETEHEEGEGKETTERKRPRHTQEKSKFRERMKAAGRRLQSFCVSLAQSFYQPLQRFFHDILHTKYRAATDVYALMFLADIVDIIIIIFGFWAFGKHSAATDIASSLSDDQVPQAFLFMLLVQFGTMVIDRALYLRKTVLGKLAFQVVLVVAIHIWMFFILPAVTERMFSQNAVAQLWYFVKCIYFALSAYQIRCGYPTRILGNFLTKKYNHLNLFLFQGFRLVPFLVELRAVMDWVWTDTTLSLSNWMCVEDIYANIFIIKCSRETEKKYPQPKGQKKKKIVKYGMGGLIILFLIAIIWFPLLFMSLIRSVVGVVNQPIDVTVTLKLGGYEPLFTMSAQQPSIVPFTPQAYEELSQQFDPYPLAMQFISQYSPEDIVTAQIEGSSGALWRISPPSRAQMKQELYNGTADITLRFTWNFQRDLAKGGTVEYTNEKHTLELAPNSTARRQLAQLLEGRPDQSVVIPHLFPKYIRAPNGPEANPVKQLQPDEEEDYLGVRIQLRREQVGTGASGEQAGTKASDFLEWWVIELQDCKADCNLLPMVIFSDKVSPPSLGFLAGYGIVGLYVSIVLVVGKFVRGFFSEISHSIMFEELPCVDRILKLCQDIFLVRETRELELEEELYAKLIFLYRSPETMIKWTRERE

| Substance | Kd (Piezo1) [nM] | Kd (Cav3) [nM] |
| --- | --- | --- |
| GsMTx4 (from UniProt Q7YT39) | 155 | – |
| Kurtoxin (from UniProt P58910) | – | 15 |
